# Source: US20080044436A1, “Method for Screening and Compositions for Treating Cancers” (priority 2004, published 2008)
# B1: TReP-132: Transcriptional Regulating Protein of 132 kDa, polypeptide comprising SEQ ID NO: 2; here expressed in cells from vectors (protein)
# chain: MGDQQLYKTNHVAHGSENLFYQQPPLGVHSGLNHNYGNAVTGGGMDAPQASPISPHFPQDTRDGLGLPVGSKNLGQMDTSRQGGWGSHAGPGNHVQLRGNLANSNMMWGAPAQAEPTDGYQYTYSQASEIRTQKLTSGVLHKLDSFTQVFANQNLRIQVNNMAQVLHTQSAVMDGAPDSALRQLLSQKPMEPPAPAIPSRYQQVPQQPHPGFTGGLSKPALQVGQHPTQGHLYYDYQQPLAQVPVQGGQPLQAPQMLSQHMQQMQQHQYYPPQQQQQAGQQRISMQEIQTQPQQIRPSQPQPPPQQQQPQQLQLQQRQGSMQIPQYYQPQPMMQHLQEQQQQQMHLQPPSYHRDPHQYTPEQAHTVQLIPLGSMSQYYYQEPQQPYSHPLYQQSHLSQHQQREDSQLKTYSSDRQAQAMLSSHGDLGPPDTGMGDPASSDLTRVSSTLPHRPLLSPSGIHLNNMGPQHQQLSPSAMWPQMHLPDGRAQPGSPESSGQPKGAFGEQFDAKNKLTCSICLKEFKNLPALNGHMRSHGGMRASPNLKQEEGEKVLPPQPQPPLPPPPPPPPPPQLPPEAESLTPMVMPVSVPVKLLPPKPSSQGFTNSTVAAPSARDKPASSMSDDEMPVLEIPRKHQPSVPKAEEPLKTVQEKKKFRHRPEPLFIPPPPSYNPNPAASYSGATLYQSQLRSPRVLGDHLLLDPTHELPPYTPPPMLSPVRQGSGLFSNVLISGHGPGAHPQLPLTPLTPTPRVLLCRSNSIDGSNVTVTPGPGEQTVDVEPRINIGLRFQAEIPELQDISALAQDTHKATLVWKPWPELENHDLQQRVENLLNLCCSSALPGGGTNSEFALHSLFEAKGDVMVALEMLLLRKPVRLKCHPLANYHYAGSDKWTSLERKLFNKALATYSKDFIFVQKMVKSKTVAQCVEYYYTWKKIMRLGRKHRTRLAEIIDDCVTSEEEEELEEEEEEDPEEDRKSTKEEESEVPKSPEPPPVPVLAPTEGPPLQALGQPSGSFICEMPNCGAVFSSRQALNGHARIHGGTNQVTKARGAIPSGKQKPGGTQSGYCSVKSSPSHSTTSGETDPTTIFPCKECGKVFFKIKSRNAHMKTHRQQEEQQRQKAQKAAFAAEMAATIERTTGPVGAPGLLPLDQLSLIKPIKDVDILDDDVVQQLGGVMEEAEVVDTDLLLDDQDSVLLQGDAEL
# Experiments:
# TReP-132 mRNA = assay: Quantitative RT-PCR of TReP-132 mRNA in T47-D cells; type: cell-based, human; conditions: 30 nM progesterone, 48 hours of exposure
# Method: Total RNA from T47-D cells treated or not with progesterone was reverse transcribed and TReP-132 transcript levels were measured by quantitative RT-PCR as described in Gizard et al. (2004) using primers specific for […] and [NT]). […] Transfection was carried out by using the GeneSilencer reagent (Gene Therapy Systems, San Diego, USA) as directed by the manufacturer. Transfection efficiency was verified by FACS analysis (Fluorescence-Activated Cell Sorting) (see below). […] Statistical analyses were carried out with the nonparametric Kruskal-Wallis test.
# HeLa cells = assay: Cell cycle analysis by flow cytometry after TReP-132 induction; type: cell-based, human; conditions: HTO-GFP/TReP-132 cells, from 48 hours after doxycycline removal
# Text: HeLa Tet-off cells expressing the tTA transactivator under the control of tetracycline or doxycycline (Dox) (Clontech Laboratories, Palo Alto, Calif.) were stably transfected with the pBI-EGFP-TReP-132 vector or the pBI-EGFP control vector. In order to select stably transfected cells, the pcDNA6 plasmid (Invitrogen, Ontario, CA) containing the blasticidin resistance gene was cotransfected at a ratio of 1:50. For these transfections, the cells were first seeded in 6-well plates at an initial density of 1×10^5 cells per well, incubated for 24 hours, then transfected with ExGen 500 (MBI Fermentas, Flamborough, Ontario, CA) at a ratio of 5 μl of ExGen 500 for a total of 1 μg of plasmid such as described hereinabove in the section “Colony formation assays”. 48 hours post-transfection, cells were selected for 2 weeks with blasticidin (Sigma-Aldrich CA Ltd.). Clearly visible colonies were then were picked and subcloned on 12-well plates to enable growth. […]
# To evaluate the percentage of cells in the G0/G1, S, or G2/M phase, flow cytometry profiles were determined on propidium iodide stained DNA from said cells. […] The percentage of cells in the G1, S, and G2/M phase was quantified with Multicycle AV software (Phoenix Flow System, San Diego, Calif.) (28).
# cyclin D1/CDK6 = assay: In vitro kinase assay of immunoprecipitated cyclin D1/CDK6 (pRb substrate); type: biochemical, human; conditions: TReP-132 induced for 48 hours in HTO-GFP/TReP-132 cells
# Text: FIG. 9A: Kinase activities of each immunoprecipitated cyclin or CDK were quantified using pRb as substrate to measure cyclin D1/CDK6 activity, or histone H1 to measure cyclin A/CDK2 activity. The levels of phosphorylation of histone H1 or pRb in induced HTO cells (HeLa Tet Off) are expressed in relation to the levels in non-induced HTO cells (corresponding to level 1.0).
# Cells were washed twice with cold PBS (Phosphate Buffered Saline), then harvested either in cold RIPA buffer (1×PBS, 1% Nonidet P-40, 0.5% sodium deoxycholate, 0.1% SDS, phosphatase and protease inhibitors) for co-immunoprecipitation analysis, or in lysis buffer (50 mM Tris, pH 8.0, 0.1% IGEPAL (Sigma)) for kinase assays. […] The blots were then visualized with ECL reagent and quantified with SCANWISE and Perfect-IMAGE V-5.3 software (CLARA VISION, France).
# The kinase activities on histone H1 or Rb protein in the immunoprecipitates were measured as follows: the immunoprecipitates were first washed once with 1 ml of assay buffer (50 mM Tris-HCl, pH 7.4, 10 mM MgCl2, 1 mM dithiothreitol (DTT)), then resuspended in 20 μl of assay buffer containing 1 mg/ml casein (Sigma) and 1 μg of histone H1 or Rb protein (769) (sc-4112) as substrate. […]
# The reaction was stopped by addition of 15 μl of electrophoresis buffer (3×). […] Phosphorylated Rb and histones were quantified by densitometry.
Molecule,"TReP-132 mRNA levels, peak increase (TReP-132 mRNA) [fold]",cell cycle effect (HeLa cells),in vitro kinase activity of cyclin D1/CDK6 (cyclin D1/CDK6)
"CC(=O)[C@H]1CC[C@H]2[C@@H]3CCC4=CC(=O)CC[C@]4(C)[C@H]3CC[C@]12C [progesterone, reference compound]",3,–,–
B1,–,arrested cells in the G1 phase,reduced
